RM2 reaction (the value normalized to RM2 reaction to 75 kDa protein) (ratio of band density to the 75 kDa band), RM2 reaction level to GPX (normalized to 75 kDa band) (ratio of band density to the 75 kDa band) and absorbance data for one substance are collected here from patent US20100173334A1.

Experiment [1] addresses haptoglobin β chain derived from cancer (serum or cells of cancer patients) (human) (UniProt P00738). Nature of the experiment: serum Western blot; urothelial cancer, superficial (n=18). On the technique in general: In western blotting, separated proteins are transferred to a membrane and probed.
The target is the same in experiment [2]. Description: serum Western blot; urothelial cancer, muscle invasive or advanced (n=19).
Experiment [3] deals with haptoglobin β chain derived from benign disease (serum of patients with benign prostatic disease) (human) (UniProt P00738). Description: serum Western blot, Scion image densitometry; mean of 43 patients with benign prostatic disease.
Experiment [4] deals with haptoglobin β chain derived from cancer (serum or cells of cancer patients) (human) (UniProt P00738). Description: sandwich ELISA: RM2 captured on anti-mouse IgM plate, diluted serum, detection with rabbit anti-haptoglobin polyclonal; mean of 12 sera of prostate cancer. Background: In an ELISA, binding on a coated surface is turned into a signal by an enzyme label.
Experiment [5] has the same target. Description: serum Western blot; the same 15 patients after radical prostatectomy.
Experiment [6] has the same target. Nature of the experiment: serum Western blot; 15 prostate cancer patients before radical prostatectomy.
For experiment [7], the target named is haptoglobin β chain derived from benign disease (serum of patients with benign prostatic disease) (human) (UniProt P00738). Nature of the experiment: sandwich ELISA: RM2 captured on anti-mouse IgM plate, diluted serum, detection with rabbit anti-haptoglobin polyclonal; mean of 12 sera of benign prostatic disease.
Experiment [8] deals with haptoglobin β chain derived from cancer (serum or cells of cancer patients) (human) (UniProt P00738). Description: serum Western blot, Scion image densitometry; mean of 62 patients with early prostate cancer.

For monoclonal antibody RM2, the RM2 reaction (the value normalized to RM2 reaction to 75 kDa protein) (ratio of band density to the 75 kDa band) in experiment [1] came out at 0.31; in experiment [2], 0.96. In addition, the RM2 reaction level to GPX (normalized to 75 kDa band) (ratio of band density to the 75 kDa band) in experiment [3] turned out to be 0.35; in experiment [5], 0.6; in experiment [6], 0.92; in experiment [8], 0.96. For the same substance, the absorbance at 450 nm (absorbance at 450 nm) in experiment [4] is 1.1; in experiment [7], 0.58.
